What was measured:
Recombinant human HER2 [1] = target: T1, Recombinant human HER2 (human, UniProt P04626 23-652); test: SPR, pre-SEC; ratio to WT v10013;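 further: SPR on Biacore T200 at 25 °C, constructs captured via anti-human Fc on CM5 chip, HER2 ECD as analyte, 1:1 Langmuir global fit, after protein A purification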
T1 construct: extracellular domain; analyte of the SPR assays; also called HER2 ECD; ECD2 of HER2
Protocol: (§1) The affinity towards HER2 ECD of the samples was measured by SPR on a Biacore T200 as follows. Between 2000 and 4000 RU of anti-human Fc injected at concentration between 5 and 10 μg/ml was immobilized on a CM5 chip using standard amine coupling. Antigen-binding constructs were captured on the anti-human Fc (injected at concentration at 0.51 microg/mL in PBST, 1 min at 10 microl/min) at response levels ranging from 120-270 RU. […] HER2 dilutions were analyzed in duplicates. Sensograms were fit globally to a 1: 1 Langmuir binding model, using the software provided with the Biacore T200. All experiments were conducted at 25° C.
(§2) The affinity of antigen-binding constructs in OA format was determined by SPR following protein A purification. […] Antigen-binding constructs in FSA format were purified by protein A affinity and SEC prior to assessment of affinity by SPR.

Recombinant human HER2 [2] = target: T1, Recombinant human HER2; test: SPR, variant captured on anti-human Fc, HER2 flowed, 25 C, pre-SEC;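 further: HER2 extracellular domain binding on Biacore T200, CM5 chip with amine-coupled anti-human Fc, duplicate antigen dilutions, global 1:1 Langmuir fit, measured after protein A purification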
Protocol: as §1, §2

Recombinant human HER2 [3] = target: T2, Recombinant human HER2 (human, UniProt P04626 23-652); test: SPR, 25 C; Ka ratio to WT v10013;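 further: constructs captured via anti-human Fc on CM5 chip, HER2 ECD as analyte in duplicate dilutions, sensorgrams globally fit to 1:1 Langmuir model on Biacore T200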
T2 construct: extracellular domain; Analyte of the SPR assays; also called HER2 ECD; ECD2 of HER2
Protocol: as §1

Recombinant human HER2 [4] = target: T2, Recombinant human HER2; test: calculated from the SPR Ka ratio to WT v10013;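 further: SPR at 25 °C with constructs captured on an anti-human Fc chip and HER2 extracellular domain as analyte, kinetics fitted to a 1:1 Langmuir model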
Protocol: as §1

Recombinant human HER2 [5] = target: T2, Recombinant human HER2; test: SPR, Biacore T200, 25 C; variant captured on anti-human Fc, HER2 flowed;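 further: HER2 extracellular domain analyte run as duplicate dilutions over amine-coupled anti-Fc on a CM5 chip, rates from global sensorgram fitting with a 1:1 Langmuir model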

Row | Ka, mut/Ka, WT (Recombinant human HER2 [1]) | Kd (Recombinant human HER2 [2]) [nM] | Ka, mut/Ka, WT (Recombinant human HER2 [3]) [fold] | ΔΔG (Recombinant human HER2 [4]) [kcal/mol] | Kd (Recombinant human HER2 [5]) [nM] | koff (Recombinant human HER2 [5]) [s⁻¹] | kon (Recombinant human HER2 [5]) [M⁻¹ s⁻¹] | Binder
1 | 18 | 0.94 |  |  |  |  |  | variant 14067 (antibody, human IgG1, kappa, OA pertuzumab variant, HC K75Y (Kabat); also called v14067) heavy: EVQLVESGGGLVQPGGSLRLSCAASGFTFTDYTMDWVRQAPGKGLEWVADVNPNSGGSIYNQRFKGRFTLSVDRSYNTLYLQMNSLRAEDTAVYYCARNLGPSFYFDYWGQGTLVTVSSASTKGPSVFPLAPSSKSTSGGTAALGCLVKDYFPEPVTVSWNSGALTSGVHTFPAVLQSSGLYSLSSVVTVPSSSLGTQTYICNVNHKPSNTKVDKKVEPKSCDKTHTCPPCPAPELLGGPSVFLFPPKPKDTLMISRTPEVTCVVVDVSHEDPEVKFNWYVDGVEVHNAKTKPREEQYNSTYRVVSVLTVLHQDWLNGKEYKCKVSNKALPAPIEKTISKAKGQPREPQVYVYPPSRDELTKNQVSLTCLVKGFYPSDIAVEWESNGQPENNYKTTPPVLDSDGSFALVSKLTVDKSRWQQGNVFSCSVMHEALHNHYTQKSLSLSPG light: not shown not shown
2 |  |  | 8 | -1.2 | 2 | 9.9e-05 | 49000 | Variant 14031 (antibody, human IgG1, kappa, OA (one-armed) format; clones 8778, 1811, 4372; also called v14031) heavy: EVQLVESGGGLVQPGGSLRLSCAASGFTFQDYTMDWVRQAPGKGLEWVADVNPNSGGSIYNQRFKGRFTLSVDRWKNTLYLQMNSLRAEDTAVYYCARNLGPSFYFDYWGQGTLVTVSSASTKGPSVFPLAPSSKSTSGGTAALGCLVKDYFPEPVTVSWNSGALTSGVHTFPAVLQSSGLYSLSSVVTVPSSSLGTQTYICNVNHKPSNTKVDKKVEPKSCDKTHTCPPCPAPELLGGPSVFLFPPKPKDTLMISRTPEVTCVVVDVSHEDPEVKFNWYVDGVEVHNAKTKPREEQYNSTYRVVSVLTVLHQDWLNGKEYKCKVSNKALPAPIEKTISKAKGQPREPQVYVYPPSRDELTKNQVSLTCLVKGFYPSDIAVEWESNGQPENNYKTTPPVLDSDGSFALVSKLTVDKSRWQQGNVFSCSVMHEALHNHYTQKSLSLSPG light: not shown not shown
3 |  |  | 10 | -1.4 | 1.7 | 9.9e-05 | 59000 | Variant 14033 (antibody, human IgG1, kappa, OA (one-armed) format; clones 8779, 1811, 4372; also called v14033) heavy: EVQLVESGGGLVQPGGSLRLSCAASGFTFTDYTMDWVRQAPGKGLEWVADVNPNSGGSIYNQRFKGRFTLSVDRWENTLYLQMNSLRAEDTAVYYCARNLGPSFYFDYWGQGTLVTVSSASTKGPSVFPLAPSSKSTSGGTAALGCLVKDYFPEPVTVSWNSGALTSGVHTFPAVLQSSGLYSLSSVVTVPSSSLGTQTYICNVNHKPSNTKVDKKVEPKSCDKTHTCPPCPAPELLGGPSVFLFPPKPKDTLMISRTPEVTCVVVDVSHEDPEVKFNWYVDGVEVHNAKTKPREEQYNSTYRVVSVLTVLHQDWLNGKEYKCKVSNKALPAPIEKTISKAKGQPREPQVYVYPPSRDELTKNQVSLTCLVKGFYPSDIAVEWESNGQPENNYKTTPPVLDSDGSFALVSKLTVDKSRWQQGNVFSCSVMHEALHNHYTQKSLSLSPG light: not shown not shown

The next lines start with the binder.

Row | Binder | Ka, mut/Ka, WT (Recombinant human HER2 [1]) | Kd (Recombinant human HER2 [2]) [nM] | Ka, mut/Ka, WT (Recombinant human HER2 [3]) [fold] | ΔΔG (Recombinant human HER2 [4]) [kcal/mol] | Kd (Recombinant human HER2 [5]) [nM] | koff (Recombinant human HER2 [5]) [s⁻¹] | kon (Recombinant human HER2 [5]) [M⁻¹ s⁻¹]
4 | Variant 14028 (antibody, human IgG1, kappa, OA (one-armed) format; clones 8776, 1811, 4372; also called v14028) heavy: EVQLVESGGGLVQPGGSLRLSCAASGFTFYDYTMDWVRQAPGKGLEWVADVNPNSGGSIYNQRFKGRFTLSVDRSWNTLYLQMNSLRAEDTAVYYCARNLGPSFYFDYWGQGTLVTVSSASTKGPSVFPLAPSSKSTSGGTAALGCLVKDYFPEPVTVSWNSGALTSGVHTFPAVLQSSGLYSLSSVVTVPSSSLGTQTYICNVNHKPSNTKVDKKVEPKSCDKTHTCPPCPAPELLGGPSVFLFPPKPKDTLMISRTPEVTCVVVDVSHEDPEVKFNWYVDGVEVHNAKTKPREEQYNSTYRVVSVLTVLHQDWLNGKEYKCKVSNKALPAPIEKTISKAKGQPREPQVYVYPPSRDELTKNQVSLTCLVKGFYPSDIAVEWESNGQPENNYKTTPPVLDSDGSFALVSKLTVDKSRWQQGNVFSCSVMHEALHNHYTQKSLSLSPG light: not shown not shown |  |  | ~67 | -2.5 | ~0.25 | ~1.7e-05 | 68000
5 | Variant 14026 (antibody, human IgG1, kappa, OA (one-armed) format; clones 8774, 1811, 4372; also called v14026) heavy: EVQLVESGGGLVQPGGSLRLSCAASGFTFTDYTMDWVRQAPGKGLEWVADVNPNSGGSIYNQRFKGRFTLSVDRSWNTLYLQMNSLRAEDTAVYYCARNLGPWFYFDYWGQGTLVTVSSASTKGPSVFPLAPSSKSTSGGTAALGCLVKDYFPEPVTVSWNSGALTSGVHTFPAVLQSSGLYSLSSVVTVPSSSLGTQTYICNVNHKPSNTKVDKKVEPKSCDKTHTCPPCPAPELLGGPSVFLFPPKPKDTLMISRTPEVTCVVVDVSHEDPEVKFNWYVDGVEVHNAKTKPREEQYNSTYRVVSVLTVLHQDWLNGKEYKCKVSNKALPAPIEKTISKAKGQPREPQVYVYPPSRDELTKNQVSLTCLVKGFYPSDIAVEWESNGQPENNYKTTPPVLDSDGSFALVSKLTVDKSRWQQGNVFSCSVMHEALHNHYTQKSLSLSPG light: not shown not shown |  |  | ~57 | -2.4 | ~0.29 | ~2.7e-05 | 91000
6 | Variant 14030 (antibody, human IgG1, kappa, OA (one-armed) format; clones 7840, 7919, 4372; also called v14030) heavy: EVQLVESGGGLVQPGGSLRLSCAASGFTFTDYTMDWVRQAPGKGLEWVADVNPNSGGSIYNQRFKGRFTLSVDRWKNTLYLQMNSLRAEDTAVYYCARNLGPSFYFDYWGQGTLVTVSSASTKGPSVFPLAPSSKSTSGGTAALGCLVKDYFPEPVTVSWNSGALTSGVHTFPAVLQSSGLYSLSSVVTVPSSSLGTQTYICNVNHKPSNTKVDKKVEPKSCDKTHTCPPCPAPELLGGPSVFLFPPKPKDTLMISRTPEVTCVVVDVSHEDPEVKFNWYVDGVEVHNAKTKPREEQYNSTYRVVSVLTVLHQDWLNGKEYKCKVSNKALPAPIEKTISKAKGQPREPQVYVYPPSRDELTKNQVSLTCLVKGFYPSDIAVEWESNGQPENNYKTTPPVLDSDGSFALVSKLTVDKSRWQQGNVFSCSVMHEALHNHYTQKSLSLSPG light: not shown not shown |  |  | 13 | -1.5 | 1.3 | 8e-05 | 63000
7 | Variant 14029 (antibody, human IgG1, kappa, OA (one-armed) format; clones 8777, 1811, 4372; also called v14029) heavy: EVQLVESGGGLVQPGGSLRLSCAASGFTFTDYTMDWVRQAPGKGLEWVADVNPNSGYSIYNQRFKGRFTLSVDRSWNTLYLQMNSLRAEDTAVYYCARNLGPSFYFDYWGQGTLVTVSSASTKGPSVFPLAPSSKSTSGGTAALGCLVKDYFPEPVTVSWNSGALTSGVHTFPAVLQSSGLYSLSSVVTVPSSSLGTQTYICNVNHKPSNTKVDKKVEPKSCDKTHTCPPCPAPELLGGPSVFLFPPKPKDTLMISRTPEVTCVVVDVSHEDPEVKFNWYVDGVEVHNAKTKPREEQYNSTYRVVSVLTVLHQDWLNGKEYKCKVSNKALPAPIEKTISKAKGQPREPQVYVYPPSRDELTKNQVSLTCLVKGFYPSDIAVEWESNGQPENNYKTTPPVLDSDGSFALVSKLTVDKSRWQQGNVFSCSVMHEALHNHYTQKSLSLSPG light: not shown not shown |  |  | ~81 | -2.6 | ~0.21 | ~2e-05 | 95000
8 | Variant 14027 (antibody, human IgG1, kappa, OA (one-armed) format; clones 7844, 7917, 4372; also called v14027) heavy: EVQLVESGGGLVQPGGSLRLSCAASGFTFTDYTMDWVRQAPGKGLEWVADVNPNSGGSIYNQRFKGRFTLSVDRSWNTLYLQMNSLRAEDTAVYYCARNLGPSFYFDYWGQGTLVTVSSASTKGPSVFPLAPSSKSTSGGTAALGCLVKDYFPEPVTVSWNSGALTSGVHTFPAVLQSSGLYSLSSVVTVPSSSLGTQTYICNVNHKPSNTKVDKKVEPKSCDKTHTCPPCPAPELLGGPSVFLFPPKPKDTLMISRTPEVTCVVVDVSHEDPEVKFNWYVDGVEVHNAKTKPREEQYNSTYRVVSVLTVLHQDWLNGKEYKCKVSNKALPAPIEKTISKAKGQPREPQVYVYPPSRDELTKNQVSLTCLVKGFYPSDIAVEWESNGQPENNYKTTPPVLDSDGSFALVSKLTVDKSRWQQGNVFSCSVMHEALHNHYTQKSLSLSPG light: not shown not shown |  |  | ~164 | -3 | ~0.1 | ~9e-06 | 88000

From patent publication US20180273635A1 (Zymeworks, published 2018)
